Stoichiometry N data for one substance are collected here from PMC2840394.

The target in the test is AL-12 variable domain (VL), amyloidogenic immunoglobulin kappa light chain of the κI O18/O8 germline (human (patient AL-12)). As to the kind of experiment: crystal structure.

Usually stoichiometry N stands for the number of molecules, sites or subunits per partner or assembly.

Consider “AL-12 variable domain (VL), amyloidogenic immunoglobulin kappa light chain of the κI O18/O8 germline (domain or fragment)”, for which the stoichiometry N is 2.
